From US20250361322A1 (ICONIC THERAPEUTICS, published 2025)
Substitutions are numbered along the chain they refer to. Values belong to the binder of their own block, whether it stands above or below them.

Assays:
[1] = biological target: T1, human TF ECD-His6 (human, UniProt P13726 33-251); experiment: BLI (ForteBio Octet)
T1 construct: Expi293-derived; Biacore used TF-His; also called TF-His; hTF

[2] = biological target: T2, cynomolgus monkey TF ECD-His6 (cynomolgus monkey (Macaca fascicularis)); experiment: BLI (ForteBio Octet)
T2 construct: Expi293-derived; also called TF-His; cTF
T2 chain: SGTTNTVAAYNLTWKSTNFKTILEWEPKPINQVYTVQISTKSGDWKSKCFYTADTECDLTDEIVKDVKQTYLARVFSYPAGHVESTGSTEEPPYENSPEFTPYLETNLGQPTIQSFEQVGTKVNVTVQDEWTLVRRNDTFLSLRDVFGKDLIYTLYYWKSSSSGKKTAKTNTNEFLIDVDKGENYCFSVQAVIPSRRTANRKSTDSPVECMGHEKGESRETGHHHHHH

[3] = biological target: T3, Relipidated TF (UniProt P13726 33-295, limits assumed); experiment: cell-based or functional assay
[4] = biological target: T4, rTF (rat TF) construct on HEK293 cells (rat, UniProt P42533 29-252); experiment: live cell staining, HEK293 cells
T4 construct: not shown: transmembrane/cytoplasmic anchor of the cell-surface construct
T4 sequence (P42533 29-252 limits assumed): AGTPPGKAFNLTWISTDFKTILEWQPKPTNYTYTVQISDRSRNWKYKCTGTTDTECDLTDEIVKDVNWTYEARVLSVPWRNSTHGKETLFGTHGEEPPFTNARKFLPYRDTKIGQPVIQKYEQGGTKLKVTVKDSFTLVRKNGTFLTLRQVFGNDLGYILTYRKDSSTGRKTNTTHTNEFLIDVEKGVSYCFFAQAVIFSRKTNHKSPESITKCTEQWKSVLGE

[5] = biological target: T1, human TF ECD-His6; experiment: SPR (Biacore), TF-His over coupled antibody
[6] = biological target: T2, cynomolgus monkey TF ECD-His6; experiment: SPR (Biacore), TF-His over coupled antibody
[7] = biological target: T5, full-length mouse TF with a C-terminal FLAG tag on Flp-In-CHO cells (mouse, UniProt P20352 29-294); experiment: flow cytometry, antibody titration on CHO cells expressing mouse TF
T5 construct: also called CHO-mTF; mouse TF-positive CHO cells

[8] = biological target: T5, full-length mouse TF with a C-terminal …; experiment: flow cytometry on CHO cells expressing mouse TF, MFI at 250 nM antibody
[9] = biological target: T6, human Tissue Factor on human TF-positive cells (human, UniProt P13726 33-295); experiment: flow cytometry, antibody titration on A431 cells (human TF), 4-parameter fit of MFI
T6 construct: also called hTF; CD142

[10] = biological target: T6, human Tissue Factor on human …; experiment: flow cytometry, antibody titration on MDA-MB-231 cells (human TF), 4-parameter fit of MFI
[11] = biological target: T6, human Tissue Factor on human …; experiment: flow cytometry, antibody titration on HCT-116 cells (endogenous human TF), 4-parameter fit of MFI
[12] = biological target: T6, human Tissue Factor on human …; experiment: flow cytometry, titration of unconjugated antibody on HCT-116 cells (human TF), 4-parameter fit of MFI
[13] = biological target: T6, human Tissue Factor on human …; experiment: competition flow cytometry on MDA-MB-231 cells: antibody titration first, then 20 nM FVII-Fc-Alexa488 as the blocked ligand
[14] = biological target: T6, human Tissue Factor on human …; experiment: competition flow cytometry on MDA-MB-231 cells: unlabeled antibody titration first, then 20 nM 39A-Alexa488 as the competitor
[15] = biological target: T7, mouse TF ECD-His6 (mouse, UniProt P20352 29-251); experiment: BLI (ForteBio Octet)
T7 construct: Expi293-derived; also called TF-His; mTF

[16] = biological target: T5, full-length mouse TF with a C-terminal …; experiment: flow cytometry, antibody titration on CHO cells expressing mouse TF, 4-parameter fit of MFI
[17] = biological target: T3, Relipidated TF; experiment: cell-based or functional assay; remark: listed apart in the source

Kd [1]: 2.32 nM
Kd [2]: 15 nM
% ETP at 10 nM Ab (TGA with 10 min antibody pre-incubation) [3]: 73%
% ETP at 50 nM Ab (TGA with 10 min antibody pre-incubation) [3]: 68%
% ETP at 100 nM Ab (TGA with 10 min antibody pre-incubation) [3]: 64%
% Peak IIa at 10 nM Ab (TGA with 10 min antibody pre-incubation) [3]: 30%
% Peak IIa at 50 nM Ab (TGA with 10 min antibody pre-incubation) [3]: 27%
% Peak IIa at 100 nM Ab (TGA with 10 min antibody pre-incubation) [3]: 26%
ETP at 10 nM Ab (TGA with 10 min antibody pre-incubation) [3]: 1250 nM·min
ETP at 50 nM Ab (TGA with 10 min antibody pre-incubation) [3]: 1170 nM·min
ETP at 100 nM Ab (TGA with 10 min antibody pre-incubation) [3]: 1100 nM·min
Lag Time at 10 nM Ab (TGA with 10 min antibody pre-incubation) [3]: 10.4 min
Lag Time at 50 nM Ab (TGA with 10 min antibody pre-incubation) [3]: 14.2 min
Lag Time at 100 nM Ab (TGA with 10 min antibody pre-incubation) [3]: 15.1 min
Peak IIa at 10 nM Ab (TGA with 10 min antibody pre-incubation) [3]: 78 nM
Peak IIa at 50 nM Ab (TGA with 10 min antibody pre-incubation) [3]: 70 nM
Peak IIa at 100 nM Ab (TGA with 10 min antibody pre-incubation) [3]: 68 nM
ttPeak at 10 nM Ab (TGA with 10 min antibody pre-incubation) [3]: 20.2 min
ttPeak at 50 nM Ab (TGA with 10 min antibody pre-incubation) [3]: 24.3 min
ttPeak at 100 nM Ab (TGA with 10 min antibody pre-incubation) [3]: 25.3 min
binding result [4]: no binding
Kd [5]: 0.47 nM
Kd [6]: 5.06 nM
binding result [7]: no binding (tested: 250 nM)
MFI at 250 nM [8]: 5100
EC50 [9]: 0.68 nM
EC50 [10]: 0.26 nM
EC50 [11]: 0.152 nM
EC50 [12]: 0.23 nM
IC50 (read off the curve) [13]: ~2 nM
IC50 [14]: 1.15 nM
B1: 29E (antibody, human IgG1, V domains shown)
VH: QVQLVESGGGVVQPGRSLRLSCAASGFTFRSYGMHWVRQAPGKGLEWVAVITYDGINKYYADSVEGRFTISRDNSKNTLYLQMNSLRAEDTAVYYCARDGVYYGVYDYWGQGTLVTVSS
VL: not shown
notes: Human IgG1; also called antibody designated 29E

Kd [1]: 0.64 nM
Kd [15]: 188 nM
Kd [5]: 0.08 nM
Kd [6]: 0.04 nM
MFI at 250 nM [8]: 8e+06
EC50 [16]: 11 nM
EC50 [11]: 0.088 nM
B2: 25A5 (antibody, human IgG1, V domains shown)
VH: QVQLVQSGAEVKKPGASVKVSCKASGYTFDVYGISWVRQAPGQGLEWMGWIAPYSGNTNYAQKLQGRVTMTTDTSTSTAYMELRSLRSDDTAVYYCARDAGTYSPFGYGMDVWGQGTTVTVSS
VL: DIQMTQSPSTLSASVGDRVTITCRASESISNWLAWYQQKPGKAPKLLIYKAYSLEYGVPSRFSGSGSGTEFTLTISSLQPDDFATYYCQQFQKLPPFTFGGGTKVEIK
notes: Human IgG1; also called antibody designated 25A5

Kd [1]: 21.9 nM
Kd [2]: 17.5 nM
Kd [15]: 114 nM
Kd [5]: 23 nM
Kd [6]: 18 nM
MFI at 250 nM [8]: 1.6e+07
EC50 [16]: 3.9 nM
EC50 [11]: 0.134 nM
B3: 25G (antibody, human IgG1, V domains shown)
VH: B2 VH with D30R, V31S, I51V, S55N, F106Y
VL: B2 VL with E27Q, N31S, Y52S, Y56S, K93S
notes: Human IgG1; also called antibody designated 25G

Kd [1]: 1.28 nM
Kd [2]: 1.43 nM
% ETP at 10 nM Ab (TGA without antibody pre-incubation) [17]: 58%
% Peak IIa at 10 nM Ab (TGA without antibody pre-incubation) [17]: 21%
% Peak IIa at 50 nM Ab (TGA without antibody pre-incubation) [17]: 8%
% Peak IIa at 100 nM Ab (TGA without antibody pre-incubation) [17]: 7%
ETP at 10 nM Ab (TGA without antibody pre-incubation) [17]: 1400 nM·min
Lag Time at 10 nM Ab (TGA without antibody pre-incubation) [17]: 12.1 min
Lag Time at 50 nM Ab (TGA without antibody pre-incubation) [17]: 27.2 min
Lag Time at 100 nM Ab (TGA without antibody pre-incubation) [17]: 25.9 min
Peak IIa at 10 nM Ab (TGA without antibody pre-incubation) [17]: 83 nM
Peak IIa at 50 nM Ab (TGA without antibody pre-incubation) [17]: 32 nM
Peak IIa at 100 nM Ab (TGA without antibody pre-incubation) [17]: 29 nM
ttPeak at 10 nM Ab (TGA without antibody pre-incubation) [17]: 19.8 min
ttPeak at 50 nM Ab (TGA without antibody pre-incubation) [17]: 36.8 min
ttPeak at 100 nM Ab (TGA without antibody pre-incubation) [17]: 37.9 min
% ETP at 10 nM Ab (TGA with 10 min antibody pre-incubation) [3]: 31%
% Peak IIa at 10 nM Ab (TGA with 10 min antibody pre-incubation) [3]: 10%
% Peak IIa at 50 nM Ab (TGA with 10 min antibody pre-incubation) [3]: 7%
% Peak IIa at 100 nM Ab (TGA with 10 min antibody pre-incubation) [3]: 7%
ETP at 10 nM Ab (TGA with 10 min antibody pre-incubation) [3]: 540 nM·min
Lag Time at 10 nM Ab (TGA with 10 min antibody pre-incubation) [3]: 18.8 min
Lag Time at 50 nM Ab (TGA with 10 min antibody pre-incubation) [3]: 27.6 min
Lag Time at 100 nM Ab (TGA with 10 min antibody pre-incubation) [3]: 30.3 min
Peak IIa at 10 nM Ab (TGA with 10 min antibody pre-incubation) [3]: 27 nM
Peak IIa at 50 nM Ab (TGA with 10 min antibody pre-incubation) [3]: 20 nM
Peak IIa at 100 nM Ab (TGA with 10 min antibody pre-incubation) [3]: 17 nM
ttPeak at 10 nM Ab (TGA with 10 min antibody pre-incubation) [3]: 28.6 min
ttPeak at 50 nM Ab (TGA with 10 min antibody pre-incubation) [3]: 38.9 min
ttPeak at 100 nM Ab (TGA with 10 min antibody pre-incubation) [3]: 42 min
binding result [4]: no binding
Kd [5]: 0.31 nM
Kd [6]: 0.26 nM
binding result [7]: no binding (tested: 250 nM)
MFI at 250 nM [8]: 4200
EC50 [9]: 0.49 nM
EC50 [11]: 0.05 nM
IC50 (read off the curve) [13]: ~1 nM
IC50 [14]: 0.65 nM
B4: 1F (antibody, human IgG1, V domains shown)
VH: EVQLLESGGGLVQPGGSLRLSCAASGFTFSDYAMGWVRQAPGKGLEWVSTISGSGGLTYYADSVKGRFTISRDNSKNTLYLQMNSLRAEDTAVYYCAKAPYGYYMDVWGKGTTVTVSS
VL: not shown
notes: Human IgG1; also called antibody designated 1F
